What was measured:
Assay in all cases: phage ELISA
[1] = biological target: T1, human LTβR extracellular domain fused with an Fc fragment at the C-terminus (human, UniProt P36941 31-227)
T1 construct: extracellular domain; Bought; also called hLTβR; not shown: Fc fragment at the C-terminus
Protocol: (§1) Individual clones from the fourth selection round were grown in 96-well deep well blocks in 100 μl of 2YT broth supplemented with 50 μg/ml ampicillin at 37° C. and 220 rpm for 5 hours. Then, 5 μl of helper phages were added to each well and incubated at 37° C. for 30 minutes. After centrifuging at 3,000 rpm for 10 minutes, the cells were resuspended and grown overnight in 150 μl/well of 2YT broth supplemented with 50 μg/ml ampicillin and 50 μg/ml kanamycin.
(§2) For the ELISA screening, 96-well ELISA plates were coated with target proteins (1 μg/ml in PBS) at 4° C. overnight and then blocked with 2% BSA for 2 hours at room temperature. The supernatant containing phage particles was added to the plates and incubated at room temperature for 1 hour. After incubation, the plates were washed five times with PBST. HRP (horseradish peroxidase) conjugated anti-M13 antibody (Sino Biological, China) was added to the wells and incubated at room temperature for 1 hour. Following another round of washing five times with PBST, 50 μl of TMB (3,3′, 5,5″-tetramethylbenzidine, #34029, ThemoFisher) was added to each well. After 5 minutes, the reaction was stopped by adding 50 μl stop solution (#C1058, Solarbio, China). The absorbance at 450 nm (OD450) was measured using a plate reader (SpectraMax M5, Molecule Devices). Wells coated with BSA were used as negative controls. Phage clones with an ELISA score ratio (target/BSA)>3 were considered positive clones.

[2] = biological target: T2, human HVEM extracellular domain fused with an Fc fragment at the C-terminus (human, UniProt Q92956 39-202)
T2 construct: extracellular domain; Bought; also called hHVEM; not shown: Fc fragment at the C-terminus
T2 sequence (looked up): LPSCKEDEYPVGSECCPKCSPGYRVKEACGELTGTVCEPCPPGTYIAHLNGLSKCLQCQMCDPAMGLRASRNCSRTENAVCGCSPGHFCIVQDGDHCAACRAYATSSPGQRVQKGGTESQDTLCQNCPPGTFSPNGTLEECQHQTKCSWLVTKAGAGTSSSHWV
Protocol: as §1, §2

[3] = biological target: T3, mouse LTβR extracellular domain fused with an Fc fragment at the C-terminus (mouse, UniProt P50284 31-223)
T3 construct: extracellular domain; Bought; also called mLTβR; not shown: Fc fragment at the C-terminus
T3 sequence (P50284 31-223): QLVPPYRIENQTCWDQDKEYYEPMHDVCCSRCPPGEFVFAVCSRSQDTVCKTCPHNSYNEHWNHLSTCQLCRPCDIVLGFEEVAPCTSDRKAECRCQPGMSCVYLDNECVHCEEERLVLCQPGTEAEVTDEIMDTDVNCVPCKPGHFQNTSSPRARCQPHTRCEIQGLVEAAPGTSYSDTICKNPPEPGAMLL
Protocol: as §1, §2

Measured: binding result

T1 sequence (P36941 31-227): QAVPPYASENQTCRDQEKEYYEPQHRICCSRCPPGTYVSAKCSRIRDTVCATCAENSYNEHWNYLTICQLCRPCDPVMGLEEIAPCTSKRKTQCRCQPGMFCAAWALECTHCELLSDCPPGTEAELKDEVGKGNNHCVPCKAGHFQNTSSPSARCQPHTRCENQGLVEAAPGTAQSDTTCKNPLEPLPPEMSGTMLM

B1: LIGHT-53 (ligand)
chain: DGPAGSWEQLIQERRSHEVNPAAHLTGANSSLTGSGGPLLWETNLGLAFLRGLSYHDGALVVTKAGYYYIYSKVQLGGVGCPLGLASTITHGLYKRTPRYPEELELLVSQQSPCGRATSSSRVWWDSSFLGGVVHLEAGEKVVVRVSDERLVRTRDGTRSYFGAFMV
notes: Printed mutations: Q117N, L220S, L227T; Soluble protein carries an N-terminal His tag
binds: all assays above

B2: LIGHT-64 (ligand)
chain: DGPAGSWEQLIQERRSHEVNPAAHLTGANSSLTGSGGPLLWETQLGLAFLRGLSYHDGALVVTKAGYYYIYSKVQLGGVGCPLGLASPITHGLYKRTPRYPEELELLVSQQSPCGRATSSSRVWWDSSFLGGVVHLEAGEKVVVRVSDERLVRTRDGTRSYFGAFMV
notes: Printed mutations: T161P, L220S, L227T; Soluble protein carries an N-terminal His tag
binds: all assays above

B3: LIGHT-72 (ligand)
chain: DGPAGSWEQLIQERRSHEVNPAAHLTGANSSLTGSGGPLLWETNLGLAFLRGLSYHDGALVVTKAGYYYIYSKVQLGGVGCPLGLAGTITHGLYKRTPRYPEELELLVSQQSPCGRATSSSRVWWDSSFLGGVVHLEAGEKVVVRVSDERLVRTRDGTRSYFGAFMV
notes: Printed mutations: Q117N, S160G, L220S, L227T; Soluble protein carries an N-terminal His tag
binds: all assays above

B4: LIGHT-69 (ligand)
chain: DGPAGSWEQLIQERRSHEVNPAAHLTGANSSLTGSGGPLLWETQLGLAFLRGLSYHDGALVVTKAGYYYIYSKVQLGGVGCPLGLAGPITHGLYKRTPRYPEELELLVSQQSPCGRATSSSRVWWDSSFLGGVVHLEAGEKVVVRVSDERLVRTRDGTRSYFGAFMV
notes: Printed mutations: S160G, T161P, L220S, L227T; Soluble protein carries an N-terminal His tag
binds: all assays above

B5: LIGHT-66 (ligand)
chain: DGPAGSWEQLIQERRSHEVNPAAHLTGANSSLTGSGGPLLWETQLGLAFLRGLSYHDGALVVTKAGYYYIYSKVQLGGVGCPLGLAGTITHGLYKRTPRYPEELELLVSQQSPCGRATSSSRVWWDSSFLGGVVHLEAGEKVVVRVTDERLVRTRDGTRSYFGAFMV
notes: Printed mutations: S160G, L220T, L227T; Soluble protein carries an N-terminal His tag
binds: all assays above

B6: LIGHT-74 (ligand)
chain: DGPAGSWEQLIQERRSHEVNPAAHLTGANSSLTGSGGPLLWETNLGLAFLRGLSYHDGALVVTKAGYYYIYSKVQLGGVGCPLGLAGGITHGLYKRTPRYPEELELLVSQQSPCGRATSSSRVWWDSSFLGGVVHLEAGEKVVVRVSDERLVRTRDGTRSYFGAFMV
notes: Printed mutations: Q117N, S160G, T161G, L220S, L227T; Soluble protein carries an N-terminal His tag
binds: all assays above

B7: LIGHT-54 (ligand)
chain: DGPAGSWEQLIQERRSHEVNPAAHLTGANSSLTGSGGPLLWETELGLAFLRGLSYHDGALVVTKAGYYYIYSKVQLGGVGCPLGLASTITHGLYKRTPRYPEELELLVSQQSPCGRATSSSRVWWDSSFLGGVVHLEAGEKVVVRVSDERLVRTRDGTRSYFGAFMV
notes: Printed mutations: Q117E, L220S, L227T; Soluble protein carries an N-terminal His tag
binds: all assays above

B8: LIGHT-71 (ligand)
chain: DGPAGSWEQLIQERRSHEVNPAAHLTGANSSLTGSGGPLLWETNLGLAFLRGLSYHDGALVVTKAGYYYIYSKVQLGGVGCPLGLASPITHGLYKRTPRYPEELELLVSQQSPCGRATSSSRVWWDSSFLGGVVHLEAGEKVVVRVSDERLVRTRDGTRSYFGAFMV
notes: Printed mutations: Q117N, T161P, L220S, L227T; Soluble protein carries an N-terminal His tag
binds: all assays above

B9: LIGHT-73 (ligand)
chain: DGPAGSWEQLIQERRSHEVNPAAHLTGANSSLTGSGGPLLWETELGLAFLRGLSYHDGALVVTKAGYYYIYSKVQLGGVGCPLGLASGITHGLYKRTPRYPEELELLVSQQSPCGRATSSSRVWWDSSFLGGVVHLEAGEKVVVRVSDERLVRTRDGTRSYFGAFMV
notes: Printed mutations: Q117E, T161G, L220S, L227T; Soluble protein carries an N-terminal His tag
binds: all assays above

B10: LIGHT-57 (ligand)
chain: DGPAGSWEQLIQERRSHEVNPAAHLTGANSSLTGSGGPLLWETQLGLAFLRGLSYHDGALVVTKAGYYYIYSKVQLGGVGCPLGLASTITHGLYKRTPRYPEELELLVSQQSPCGRATSSSRVWWDSSFLGGVVHLEAGEKVVVRVSDERLVRTRDGTRSYFGAFMV
notes: Printed mutations: L220S, L227T; Soluble protein carries an N-terminal His tag
binds: all assays above

B11: LIGHT-65 (ligand)
chain: DGPAGSWEQLIQERRSHEVNPAAHLTGANSSLTGSGGPLLWETQLGLAFLRGLSYHDGALVVTKAGYYYIYSKVQLGGVGCPLGLAGTITHGLYKRTPRYPEELELLVSQQSPCGRATSSSRVWWDSSFLGGVVHLEAGEKVVVRVSDERLVRTRDGTRSYFGAFMV
notes: Printed mutations: S160G, L220S, L227T; Soluble protein carries an N-terminal His tag
binds: all assays above

B12: LIGHT-67 (ligand)
chain: DGPAGSWEQLIQERRSHEVNPAAHLTGANSSLTGSGGPLLWETQLGLAFLRGLSYHDGALVVTKAGYYYIYSKVQLGGVGCPLGLASSITHGLYKRTPRYPEELELLVSQQSPCGRATSSSRVWWDSSFLGGVVHLEAGEKVVVRVSDERLVRTRDGTRSYFGAFMV
notes: Printed mutations: T161S, L220S, L227T; Soluble protein carries an N-terminal His tag
binds: all assays above

B13: LIGHT-63 (ligand)
chain: DGPAGSWEQLIQERRSHEVNPAAHLTGANSSLTGSGGPLLWETQLGLAFLRGLSYHDGALVVTKAGYYYIYSKVQLGGVGCPLGLASGITHGLYKRTPRYPEELELLVSQQSPCGRATSSSRVWWDSSFLGGVVHLEAGEKVVVRVSDERLVRTRDGTRSYFGAFMV
notes: Printed mutations: T161G, L220S, L227T; Soluble protein carries an N-terminal His tag
binds: all assays above

B14: LIGHT-55 (ligand)
chain: DGPAGSWEQLIQERRSHEVNPAAHLTGANSSLTGSGGPLLWETNLGLAFLRGLSYHDGALVVTKAGYYYIYSKVQLGGVGCPLGLASTITHGLYKRTPRYPEELELLVSQQSPCGRATSSSRVWWDSSFLGGVVHLEAGEKVVVRVTDERLVRTRDGTRSYFGAFMV
notes: Printed mutations: Q117N, L220T, L227T; Soluble protein carries an N-terminal His tag
binds: all assays above

B15: LIGHT-62 (ligand)
chain: DGPAGSWEQLIQERRSHEVNPAAHLTGANSSLTGSGGPLLWETQLGLAFLRGLSYHDGALVVTKAGYYYIYSKVQLGGVGCPLGLAGGITHGLYKRTPRYPEELELLVSQQSPCGRATSSSRVWWDSSFLGGVVHLEAGEKVVVRVTDERLVRLRDGTRSYFGAFMV
notes: Printed mutations: S160G, T161G, L220T; Soluble protein carries an N-terminal His tag
binds: all assays above

B16: LIGHT-70 (ligand)
chain: DGPAGSWEQLIQERRSHEVNPAAHLTGANSSLTGSGGPLLWETNLGLAFLRGLSYHDGALVVTKAGYYYIYSKVQLGGVGCPLGLASGITHGLYKRTPRYPEELELLVSQQSPCGRATSSSRVWWDSSFLGGVVHLEAGEKVVVRVSDERLVRTRDGTRSYFGAFMV
notes: Printed mutations: Q117N, T161G, L220S, L227T; Soluble protein carries an N-terminal His tag
binds: all assays above

B17: LIGHT-59 (ligand)
chain: DGPAGSWEQLIQERRSHEVNPAAHLTGANSSLTGSGGPLLWETQLGLAFLRGLSYHDGALVVTKAGYYYIYSKVQLGGVGCPLGLAGPITHGLYKRTPRYPEELELLVSQQSPCGRATSSSRVWWDSSFLGGVVHLEAGEKVVVRVSDERLVRLRDGTRSYFGAFMV
notes: Printed mutations: S160G, T161P, L220S; Soluble protein carries an N-terminal His tag
binds: all assays above

B18: LIGHT-68 (ligand)
chain: DGPAGSWEQLIQERRSHEVNPAAHLTGANSSLTGSGGPLLWETQLGLAFLRGLSYHDGALVVTKAGYYYIYSKVQLGGVGCPLGLAGGITHGLYKRTPRYPEELELLVSQQSPCGRATSSSRVWWDSSFLGGVVHLEAGEKVVVRVSDERLVRTRDGTRSYFGAFMV
notes: Printed mutations: S160G, T161G, L220S, L227T; Soluble protein carries an N-terminal His tag
binds: all assays above

B19: LIGHT-56 (ligand)
chain: DGPAGSWEQLIQERRSHEVNPAAHLTGANSSLTGSGGPLLWETELGLAFLRGLSYHDGALVVTKAGYYYIYSKVQLGGVGCPLGLASTITHGLYKRTPRYPEELELLVSQQSPCGRATSSSRVWWDSSFLGGVVHLEAGEKVVVRVTDERLVRTRDGTRSYFGAFMV
notes: Printed mutations: Q117E, L220T, L227T; Soluble protein carries an N-terminal His tag
binds: all assays above

Source: patent publication US20250361288A1 (Gilead, published 2025)
